The record followed here is US7598225.

In the assay the target is human HLA A2 molecules (human). In words: T2 cell binding assay, peptide at 50 ug/ml, surface HLA A2 stained with MAb A2,69, flow cytometry (no peptide: 127.25). The settings on record: remark: other sources report otherwise. (In general: Flow cytometry measures light scatter and fluorescence of single cells or particles in a stream.)

VISNDVCAQV [PSA peptide 154-163] displayed a mean channel fluorescent intensity of 182.
